Measured values published in patent publication US20220153807A1 (published 2022).

Tests used:
[1] = molecular target: T1, MAGE-A3 peptide on HLA-A*02:01 (human); assay: as above, co-transfected with inhibitor construct C2106, 5 uM NY-ESO-1 peptide; full-length, on cells
T1 peptide: FLWGPRALV

[2] = molecular target: T1, MAGE-A3 peptide on HLA-A*02:01; assay: as above, co-transfected with inhibitor construct C2107, 5 uM NY-ESO-1 peptide; full-length, on cells
[3] = molecular target: T1, MAGE-A3 peptide on HLA-A*02:01; assay: NFAT-luciferase Jurkat cells, CT139 alone; T2 cells with titrated MAGE-A3 peptide and 50 uM NY-ESO-1 peptide; full-length, on cells
[4] = molecular target: T1, MAGE-A3 peptide on HLA-A*02:01; assay: as above, co-transfected with the inhibitory CAR C1761 (NY-ESO-1 scFv, LILRB1), 50 uM NY-ESO-1 peptide; reduced against CT139 alone; full-length, on cells

B1: CT139, MAGE-A3 pep1 TCR (both alpha and beta chains) (TCR, V domains shown)
Valpha: AQSVDQPDAHVTLSEGASLELRCSYSYSAAPYLFWYVQYPGQSLQFLLKYITGDTVVKGTKGFEAEFRKSNSSFNLKKSPAHWSDSAKYFCALEGPDTGNYKYVFGAGTRLKVIA
Vbeta: DAGVTQTPRHEVAEKGQTIILKCEPVSGHNDLFWYRQTKIQGLELLSYFRSKSLMEDGGAFKDRFKAEMLNSSFSTLKIQPTEPRDSAVYLCASSFGTASAETLYFGSGTRLTVL
With B1 the EC50 of peptide [1] was 40 nM, the EC50 of peptide [2] was 100 nM and the EC50 of peptide [3] was 20 nM. For the same binder, the EC50 of peptide [4] was greater than 1000 nM.
